This assay has as its target T1, LgBiT (C-terminal GTTSA linker and Strep-tag (WSHPQFEK) omitted).
T1 chain: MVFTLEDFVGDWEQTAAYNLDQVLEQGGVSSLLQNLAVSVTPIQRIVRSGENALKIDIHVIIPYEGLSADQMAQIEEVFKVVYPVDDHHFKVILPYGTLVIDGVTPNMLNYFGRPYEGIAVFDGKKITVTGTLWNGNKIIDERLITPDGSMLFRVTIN
Kind of assay: split reporter (BiFC, NanoBiT); competition: DarkBiT101 titrated to 75 pM SmBiT86 and 0.75 nM LgBiT, loss of luminescence; 1x PBS, 0.02% Tween20, 4 °C for 16 h before addition of 1:1000 NanoGlo. Particulars: both partners purified.

Here are results for one molecule from publication PMC9791688, “Bioluminescence Goes Dark: Boosting the Performance of Bioluminescent Sensor Proteins Using Complementation Inhibitors” (ACS Sensors, 2022).

B1: DarkBiT101 peptide (peptide)
peptide: VTGYALFEKES
Turning to B1, the inhibition constant Ki was 2600 ± 400 nM.

As a reminder, the Ki is a dissociation constant, usually derived from enzyme kinetics or from competition with a known ligand. Low values mean higher affinity, high ones lower affinity.
